The source of these data is publication PMC10251734.

The assay deals with SARS-CoV-2 Wuhan-Hu-1 spike, soluble trimeric, residues 1-1204, 6 proline mutations (SARS-CoV-2) (UniProt P0DTC2). The experiment in a line: SEC. (Size exclusion chromatography separates by hydrodynamic size, large species first.)

Take “SARS-CoV-2 Wuhan-Hu-1 spike, soluble trimeric, residues 1-1204, 6 proline mutations (from UniProt P0DTC2 14-1204) (domain or fragment)”: the stoichiometry N was determined as 3.

Broadly, the stoichiometry N is the number of molecules, sites or subunits per partner or assembly.
